The results in this text go back to article PMC4981022.

Like-named read-outs stand apart in the source and are kept apart here.

One may read the stoichiometry N as a count of units in the complex or per binding partner.

For assay [1], the target named is endogenous TRAPPC6A (TPC6A), human cells (human (endogenous in HEK293, BCC, SK-N-SH and other human cell lines)) (UniProt O75865). The experiment in a line: western blotting (size of the bands); cytosol and nuclei of BCC cells, with or without UV irradiation; mitochondria of Jurkat T cells treated with PMA for 90 min. For orientation: A western blot detects proteins with antibodies after separation by electrophoresis.

For assay [2] the target is unchanged. Described as above. The source holds these as a separate data set.

Consider “endogenous TRAPPC6A (TPC6A), human cells (from UniProt O75865 1-159) (natural protein)”, for which the figures for the stoichiometry N in assay [1] and in assay [2] were 2 and 3, respectively.
